Results as given in US20200079833A1 (AstraZeneca / MedImmune, published 2020).
Starred links: 1 amine or outer side, 2 acyl side, 3 side chain; linkers in the order of their positions; H or OH if unused. Non-standard residues stand in square brackets, D forms with d. Groups on a side chain read outwards from the residue. Primed or numbered codes have the meaning given here. No end group written: not given here. *: point of attachment. Dodecanoyl(12-OPh(4-COOH)) = O=C(O)c1ccc(OCCCCCCCCCCCC(=O)*)cc1; γGlu = O=C(O)[C@H](CCC(=O)[*:2])N[*:1]; Stearoyl = CCCCCCCCCCCCCCCCCC(=O)*; αMeF = C[C@](N)(Cc1ccccc1)C(=O)O; αMeK = C[C@](N)(CCCCN)C(=O)O; Lauroyl = CCCCCCCCCCCC(=O)*; αMeS = C[C@](N)(CO)C(=O)O; PEG2′ = not defined here; Aib = CC(C)(N)C(=O)O; Ahx = NCCCCCC(=O)O

T1: GLP-1R (INS1e assay) (UniProt P32301 22-463, limits assumed)
T1 sequence (looked up): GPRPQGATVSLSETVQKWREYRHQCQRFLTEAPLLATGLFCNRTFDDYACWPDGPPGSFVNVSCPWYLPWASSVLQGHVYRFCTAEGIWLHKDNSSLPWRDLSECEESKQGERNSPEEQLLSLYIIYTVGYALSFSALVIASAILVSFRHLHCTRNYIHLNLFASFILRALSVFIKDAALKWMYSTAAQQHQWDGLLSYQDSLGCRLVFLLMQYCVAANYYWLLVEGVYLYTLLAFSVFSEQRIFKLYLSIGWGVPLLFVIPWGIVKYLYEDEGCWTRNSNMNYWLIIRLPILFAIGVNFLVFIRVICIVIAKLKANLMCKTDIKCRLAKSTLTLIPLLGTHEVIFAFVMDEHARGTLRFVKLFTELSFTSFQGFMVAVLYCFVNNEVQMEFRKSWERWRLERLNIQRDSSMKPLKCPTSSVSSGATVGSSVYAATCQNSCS


biological target: T1, GLP-1R (INS1e assay); experiment: cell-based or functional assay

Row | INS1e assay EC50 GLP-1 R n1 [pM] | INS1e assay EC50 GLP-1 R n2 [pM] | INS1e assay EC50 Mean pM GLP-1R [pM] | Binder
1 | 233 | 687 | 460 | H[Aib]EGS[αMeF]TSDV[αMeS]S[αMeF]LEGEAA[αMeK]E[αMeF]IA[αMeF]VVK([γGlu-γGlu-γGlu-Lauroyl])GG-NH2 (N-terminus assumed; SMILES CCCCCCCCCCCC(=O)N[C@@H](CCC(=O)N[C@@H](CCC(=O)N[C@@H](CCC(=O)NCCCC[C@H](NC(=O)[C@@H](NC(=O)[C@@H](NC(=O)[C@](C)(Cc1ccccc1)NC(=O)[C@H](C)NC(=O)[C@@H](NC(=O)[C@](C)(Cc1ccccc1)NC(=O)[C@H](CCC(=O)O)NC(=O)[C@](C)(CCCCN)NC(=O)[C@H](C)NC(=O)[C@H](C)NC(=O)[C@H](CCC(=O)O)NC(=O)CNC(=O)[C@H](CCC(=O)O)NC(=O)[C@H](CC(C)C)NC(=O)[C@](C)(Cc1ccccc1)NC(=O)[C@H](CO)NC(=O)[C@](C)(CO)NC(=O)[C@@H](NC(=O)[C@H](CC(=O)O)NC(=O)[C@H](CO)NC(=O)[C@@H](NC(=O)[C@](C)(Cc1ccccc1)NC(=O)[C@H](CO)NC(=O)CNC(=O)[C@H](CCC(=O)O)NC(=O)C(C)(C)NC(=O)[C@@H](N)Cc1c[nH]cn1)[C@@H](C)O)C(C)C)[C@@H](C)CC)C(C)C)C(C)C)C(=O)NCC(=O)NCC(N)=O)C(=O)O)C(=O)O)C(=O)O) [SEQ ID NO 166]
2 | 55 | 61.2 | 58 | H[Aib]EGS[αMeF]TSDV[αMeS]S[αMeF]LEGEAAK([PEG2′-PEG2′-Stearoyl])E[αMeF]IA[αMeF]VV[αMeK]GG-NH2 [SEQ ID NO 153]
3 | 32.3 | 17.1 | 25 | H[Aib]EGS[αMeF]TSDV[αMeS]S[αMeF]LEGEAAK([PEG2′-PEG2′-PEG2′-Stearoyl])E[αMeF]IA[αMeF]VV[αMeK]GG-NH2 [SEQ ID NO 154]
4 | 98.6 | 59.3 | 79 | H[Aib]EGS[αMeF]TSDV[αMeS]S[αMeF]LEGEAAK([PEG2′-PEG2′-Lauroyl])E[αMeF]IA[αMeF]VV[αMeK]GG-NH2 [SEQ ID NO 135]
5 | 765 | 1670 | 1220 | H[Aib]EGS[αMeF]TSDV[αMeS]K([PEG2′-PEG2′-γGlu-Stearoyl])[αMeF]LEGEAA[αMeK]E[αMeF]IA[αMeF]VV[αMeK]GG-NH2 [SEQ ID NO 117]
6 | 44.7 | 36.7 | 41 | H[Aib]EGS[αMeF]TSDV[αMeS]S[αMeF]LEGEAAK([Ahx-Ahx-Dodecanoyl(12-OPh(4-COOH))])E[αMeF]IA[αMeF]VV[αMeK]GG-NH2 (N-terminus assumed; SMILES CC[C@H](C)[C@H](NC(=O)[C@](C)(Cc1ccccc1)NC(=O)[C@H](CCC(=O)O)NC(=O)[C@H](CCCCNC(=O)CCCCCNC(=O)CCCCCNC(=O)CCCCCCCCCCCOc1ccc(C(=O)O)cc1)NC(=O)[C@H](C)NC(=O)[C@H](C)NC(=O)[C@H](CCC(=O)O)NC(=O)CNC(=O)[C@H](CCC(=O)O)NC(=O)[C@H](CC(C)C)NC(=O)[C@](C)(Cc1ccccc1)NC(=O)[C@H](CO)NC(=O)[C@](C)(CO)NC(=O)[C@@H](NC(=O)[C@H](CC(=O)O)NC(=O)[C@H](CO)NC(=O)[C@@H](NC(=O)[C@](C)(Cc1ccccc1)NC(=O)[C@H](CO)NC(=O)CNC(=O)[C@H](CCC(=O)O)NC(=O)C(C)(C)NC(=O)[C@@H](N)Cc1c[nH]cn1)[C@@H](C)O)C(C)C)C(=O)N[C@@H](C)C(=O)N[C@@](C)(Cc1ccccc1)C(=O)N[C@H](C(=O)N[C@H](C(=O)N[C@@](C)(CCCCN)C(=O)NCC(=O)NCC(N)=O)C(C)C)C(C)C) [SEQ ID NO 141]
7 | 63.7 | 36.2 | 50 | H[Aib]EGS[αMeF]TSDV[αMeS]S[αMeF]LEGEAAK([γGlu-Dodecanoyl(12-OPh(4-COOH))])E[αMeF]IA[αMeF]VV[αMeK]GG-NH2 (N-terminus assumed; SMILES CC[C@H](C)[C@H](NC(=O)[C@](C)(Cc1ccccc1)NC(=O)[C@H](CCC(=O)O)NC(=O)[C@H](CCCCNC(=O)CC[C@H](NC(=O)CCCCCCCCCCCOc1ccc(C(=O)O)cc1)C(=O)O)NC(=O)[C@H](C)NC(=O)[C@H](C)NC(=O)[C@H](CCC(=O)O)NC(=O)CNC(=O)[C@H](CCC(=O)O)NC(=O)[C@H](CC(C)C)NC(=O)[C@](C)(Cc1ccccc1)NC(=O)[C@H](CO)NC(=O)[C@](C)(CO)NC(=O)[C@@H](NC(=O)[C@H](CC(=O)O)NC(=O)[C@H](CO)NC(=O)[C@@H](NC(=O)[C@](C)(Cc1ccccc1)NC(=O)[C@H](CO)NC(=O)CNC(=O)[C@H](CCC(=O)O)NC(=O)C(C)(C)NC(=O)[C@@H](N)Cc1c[nH]cn1)[C@@H](C)O)C(C)C)C(=O)N[C@@H](C)C(=O)N[C@@](C)(Cc1ccccc1)C(=O)N[C@H](C(=O)N[C@H](C(=O)N[C@@](C)(CCCCN)C(=O)NCC(=O)NCC(N)=O)C(C)C)C(C)C) [SEQ ID NO 137]
8 | 129 | 115 | 122 | H[Aib]EGS[αMeF]TSDV[αMeS]S[αMeF]LEGEAAK([Ahx-Ahx-Lauroyl])E[αMeF]IA[αMeF]VV[αMeK]GG-NH2 (N-terminus assumed; SMILES CCCCCCCCCCCC(=O)NCCCCCC(=O)NCCCCCC(=O)NCCCC[C@H](NC(=O)[C@H](C)NC(=O)[C@H](C)NC(=O)[C@H](CCC(=O)O)NC(=O)CNC(=O)[C@H](CCC(=O)O)NC(=O)[C@H](CC(C)C)NC(=O)[C@](C)(Cc1ccccc1)NC(=O)[C@H](CO)NC(=O)[C@](C)(CO)NC(=O)[C@@H](NC(=O)[C@H](CC(=O)O)NC(=O)[C@H](CO)NC(=O)[C@@H](NC(=O)[C@](C)(Cc1ccccc1)NC(=O)[C@H](CO)NC(=O)CNC(=O)[C@H](CCC(=O)O)NC(=O)C(C)(C)NC(=O)[C@@H](N)Cc1c[nH]cn1)[C@@H](C)O)C(C)C)C(=O)N[C@@H](CCC(=O)O)C(=O)N[C@@](C)(Cc1ccccc1)C(=O)N[C@H](C(=O)N[C@@H](C)C(=O)N[C@@](C)(Cc1ccccc1)C(=O)N[C@H](C(=O)N[C@H](C(=O)N[C@@](C)(CCCCN)C(=O)NCC(=O)NCC(N)=O)C(C)C)C(C)C)[C@@H](C)CC) [SEQ ID NO 132]
9 | 43.2 | 16.7 | 30 | H[Aib]EGS[αMeF]TSDV[αMeS]S[αMeF]LEGEAAK([Ahx-Dodecanoyl(12-OPh(4-COOH))])E[αMeF]IA[αMeF]VV[αMeK]GG-NH2 (N-terminus assumed; SMILES CC[C@H](C)[C@H](NC(=O)[C@](C)(Cc1ccccc1)NC(=O)[C@H](CCC(=O)O)NC(=O)[C@H](CCCCNC(=O)CCCCCNC(=O)CCCCCCCCCCCOc1ccc(C(=O)O)cc1)NC(=O)[C@H](C)NC(=O)[C@H](C)NC(=O)[C@H](CCC(=O)O)NC(=O)CNC(=O)[C@H](CCC(=O)O)NC(=O)[C@H](CC(C)C)NC(=O)[C@](C)(Cc1ccccc1)NC(=O)[C@H](CO)NC(=O)[C@](C)(CO)NC(=O)[C@@H](NC(=O)[C@H](CC(=O)O)NC(=O)[C@H](CO)NC(=O)[C@@H](NC(=O)[C@](C)(Cc1ccccc1)NC(=O)[C@H](CO)NC(=O)CNC(=O)[C@H](CCC(=O)O)NC(=O)C(C)(C)NC(=O)[C@@H](N)Cc1c[nH]cn1)[C@@H](C)O)C(C)C)C(=O)N[C@@H](C)C(=O)N[C@@](C)(Cc1ccccc1)C(=O)N[C@H](C(=O)N[C@H](C(=O)N[C@@](C)(CCCCN)C(=O)NCC(=O)NCC(N)=O)C(C)C)C(C)C) [SEQ ID NO 140]
10 | 52.6 | 21.5 | 37 | H[Aib]EGS[αMeF]TSDV[αMeS]S[αMeF]LEGEAAK([PEG2′-PEG2′-PEG2′-Lauroyl])E[αMeF]IA[αMeF]VV[αMeK]GG-NH2 [SEQ ID NO 136]
11 | 45.1 | 22.7 | 34 | H[Aib]EGS[αMeF]TSDV[αMeS]S[αMeF]LEGEAAK([PEG2′-Dodecanoyl(12-OPh(4-COOH))])E[αMeF]IA[αMeF]VV[αMeK]GG-NH2 [SEQ ID NO 143]
12 | 2710 | 1450 | 2080 | H[Aib]EGS[αMeF]TSDK([PEG2′-PEG2′-γGlu-Stearoyl])[αMeS]S[αMeF]LEGEAA[αMeK]E[αMeF]IA[αMeF]VV[αMeK]GG-NH2 [SEQ ID NO 119]
13 | 168 | 77.6 | 123 | H[Aib]EGS[αMeF]TSDV[αMeS]S[αMeF]LEGEAAK([PEG2′-Lauroyl])E[αMeF]IA[αMeF]VV[αMeK]GG-NH2 [SEQ ID NO 134]
